Data reported in patent publication EP1772519A1.
Values joined by “and” are separate entries in the source; they are usually repeats but may differ in a detail not shown here. Equal values may be shown once.

Biological target: recombinant RB47 (r-RB47), containing only the four RNA recognition motif domains, histidine tag fus (Chlamydomonas reinhardtii)
Test: cell-based or functional assay

In the case of “recombinant RB60 (r-RB60), histidine tag fusion expressed in E. coli (enzyme)”, the RNA binding activity of r-RB47 (gel mobility-shift assay) after incubation with GSSG and r-RB60 was 5 fold and 6 fold.
